Measurements published in US20200299413A1 (BIOMUNEX PHARMACEUTICALS, published 2020).

Molecular target: CD38 on RPMI-8226 multiple myeloma cells (UniProt P28907 1-300, limits assumed)
Test: cell-based or functional assay

B1: parental anti-CD38 mAb (daratumumab) (antibody, V domains shown)
VH: EVQLLESGGGLVQPGGSLRLSCAVSGFTFNSFAMSWVRQAPGKGLEWVSAISGSGGGTYYADSVKGRFTISRDNSKNTLYLQMNSLRAEDTAVYFCAKDKILWFGEPVFDYWGQGTLVTVSS
VL: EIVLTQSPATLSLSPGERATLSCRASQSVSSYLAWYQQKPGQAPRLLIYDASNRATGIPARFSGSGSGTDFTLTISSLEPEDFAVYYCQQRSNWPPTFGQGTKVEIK
In the case of B1, the “ADCC (51Chromium release) EC50 on RPMI-8226 cells, non-pre-activated MNC effectors” value is reported as 0.3 nM.
